Results as given in US20200129630A1, “METHODS FOR TREATING CANCER” (BicycleRD Limited, priority 2018, published 2020).
Read-outs that look alike come from different tables or passages of the source. Numbered stars: 1 amine (or outer) side, 2 acyl side, 3 side chain; on linkers, the order of the positions; unused ones are H or OH. Bridge positions count the residues as written; N and C are the ends. Square brackets hold non-standard residues; d marks the D form. Peptide text beside a SMILES is read from it. * marks the point of attachment. X1 = COc1cc2cc(c1Cl)N(C)C(=O)C[C@H](OC(=O)[C@H](C)N(C)C(=O)CCSSC(C)CCC(=O)*)[C@]1(C)O[C@H]1[C@H](C)[C@@H]1C[C@@](O)(NC(=O)O1)[C@H](OC)/C=C/C=C(\C)C2; 1Nal = N[C@@H](Cc1cccc2ccccc12)C(=O)O; TBMB = c1c(C[*:1])cc(C[*:3])cc1C[*:2]; Tle = CC(C)(C)[C@H](N)C(=O)O; βAla = NCCC(=O)O; Sar = CNCC(=O)O

Tests used:
[1] = Wistar Han rat GLP study toxicokinetics; format: in vivo; details: plasma, Day 1 male; for Cmax: read-out: C0/Cmax
Source text: In a repeat dose experiment with BT1718 no significant gender-related differences in the TK parameters for the rat or monkey were noted. Exposure in both the rat and monkey increased approximately linearly with dose and was maintained for 28 days on repeat dosing. […] Plasma clearance and volume of distribution were similar across BT1718 dose and consistent with the PK studies.

[2] = target: hemopexin domain of MT1-MMP (Homo sapiens, UniProt P50281); assay: Binding to hemopexin domain of MT1-MMP
Protocol: Bicycle drug conjugates (BDCs) with a variety of linkers and cytotoxic payloads were prepared which retained binding to MT1.
BT1718 is a BDC that binds to MT1-MMP and upon cleavage of its disulphide linker, releases the cytotoxic tubulin inhibitor, DM1 (also referred to as DM1-SH).

advanced solid tumors = assay: Phase I/IIa trial of BT1718 in patients with advanced solid tumors: safety and efficacy; format: in vivo
Source text: This is a multi-center, FIH, Phase I/IIa, open label dose escalation trial with an expansion phase, in patients with advanced solid tumors.
A DLT is defined as a probably or highly probably drug-related AE occurring during Cycle 1 (i.e. the first 28 days) which fulfils one or more of the following criteria, despite appropriate supportive clinical management (however, all clinically significant toxicities will be considered in dose review decisions and the determination of the Phase II dose): • Neutropenia Grade 4 (absolute neutrophil count [ANC]<0.5×10^9/L) for ≥seven days *see note; • Febrile neutropenia with Grade 3 or 4 neutropenia ANC <1.0×10^9/L and a single temperature of […] or a sustained temperature ≥38° C. for more than one hour); • Clinically significant infection (documented clinically or microbiologically) with Grade 3 or 4 neutropenia (ANC <1.0×10^9/L); • Thrombocytopenia Grade 4: a) for ≥five days *see note, or b) associated with active bleeding, or c) requiring platelet transfusion. • Grade 3 or 4 toxicity to organs other than the bone marrow, EXCLUDING: Grade 3 nausea; • Grade 3 or 4 vomiting in patients who have not received optimal treatment with anti-emetics; or • Grade 3 or 4 diarrhoea in patients who have not received optimal treatment with anti-diarrhoeals. • Transient, asymptomatic Grade 3 biochemical abnormalities if agreed by the Sponsor and the Study Team, including the Chief Investigator (CI). • Fatal event; • Any other related toxicity which leads to discontinuation of treatment in Cycle 1, or to a delay in dosing of >7 days (excluding where the delay is >7 days due to scheduling rather than a clinical decision); • Any other related toxicity that is greater than at baseline and is judged to be a DLT by the Sponsor, including the CI and Principal Investigators (PIs).
Definitions of disease status is in accordance with RECIST (Response Evaluation Criteria in Solid Tumors) 1.1, based on documentation of target and non-target lesions as specified in the BT1718 study protocol. All clinical measurements to assess response must be performed within one week of the first dose of BT1718.
An open label, first in human phase Ulla study of once-weekly (QW) and twice-weekly (BIW) dosing schedules in patients with advanced solid tumours was undertaken.
4-week cycle: 1 hour intravenous (IV) infusions for 3 weeks, followed by a 1 week break.

[3] = GLP-compliant 28-day repeat dose toxicity study, rat; format: in vivo
Protocol: In a GLP-compliant study in Cynomolgus monkeys, the highest non-severely toxic dose (HNSTD) of BT1718 was established to be 18 mg/m^2 administered twice weekly, equivalent to a human dose of 0.48 mg/kg. In a GLP-compliant study in the rat, the MTD was not reached with the highest administered dose 6 mg/m^2 twice weekly. At this dose level, there was kidney toxicity (with no effect on clinical condition) and also testicular toxicity. After 28 days off-dose, there was evidence of partial recovery of kidney-related findings, but no recovery of testicular effects at this dose level. […] Therefore, the MTD for rat for twice weekly dosing was considered to be between 1 and 1.5 mg/kg.

HT-29 = assay: In vitro cytotoxicity (CellTiter-Glo) HT-29; format: cell-based; details: HT-29, Colorectal
Source text: (§1) Table 1 and Table 2 Notes: in general regression and stable disease correlated with the in vitro cytotoxicity and MT1-MMP expression. Female BALB/c mice n=3/group animals dosed twice per week except EBC-1 three per week. Tumor growth inhibition (TGI) (%)=[1−(Ti−T0)/(Vi−V0)]×100; Ti is the average tumor volume of a treatment group on a given day, TO is the average tumor volume of the treatment group on the day of treatment start, Vi is the average tumor volume of vehicle control group on the same day with Ti, and V0 is the average tumor volume of vehicle group on the day of treatment start. A one-way ANOVA was performed to compare tumor volume among groups, and when a significant F-statistics (a ratio of treatment variance to the error variance) was obtained, comparisons between groups were carried out with Games-Howell test. All data were analyzed using GraphPad Prism.* p<0.05, ** p<0.01, *** p<0.001. In vitro cytotoxicity was measured by CellTiter-Glo®, MT1-MMP membrane H score from immunohistochemistry staining, NM not measured. Tumor size on Day 1 of dosing.

[4] = Non-GLP toxicity studies, mouse; format: in vivo
Source text: These include in vitro tissue microarray in human, rat and monkey tissues and in vitro and in vivo assessment of immunogenicity. In vivo assessments include single dose toxicity in mice and rats, multiple dose range finding studies in mice, rats, dogs and monkeys (non-GLP) and GLP-compliant multiple dose studies in rats and monkeys consisting of 28-day on study phase with a 28-day recovery period.

HCT-15 = assay: In vitro cytotoxicity (CellTiter-Glo) HCT-15; format: cell-based; details: HCT-15, Colorectal
Source text: as §1

[5] = 1.2 mg/m2, Wister Han rats GLP, 1.2 mg/m^2 IV
[6] = 3 mg/m2, Wister Han rats GLP, 3 mg/m^2 IV
[7] = 6 mg/m2, Wister Han rats GLP, 6 mg/m^2 IV
[8] = rat GLP, 1 mg/kg (6 mg/m^2) twice weekly
[9] = rat GLP, males 1 mg/kg (6 mg/m^2) twice weekly

COc1cc2cc(c1Cl)N(C)C(=O)C[C@H](OC(=O)[C@H](C)N(C)C(=O)CCSSC(C)CCC(=O)NCCC(=O)N(C)CC(=O)N(C)CC(=O)N(C)CC(=O)N(C)CC(=O)N(C)CC(=O)N(C)CC(=O)N(C)CC(=O)N(C)CC(=O)N(C)CC(=O)N(C)CC(=O)N[C@@H](C)C(=O)N[C@H]1CSCc3cc4cc(c3)CSC[C@H](NC(=O)[C@@H](C)NC(=O)[C@H](Cc3cccc5ccccc35)NC(=O)[C@H](CCC(=O)O)NC(=O)[C@H](CC(N)=O)NC(=O)[C@@H](C)NC1=O)C(=O)N[C@@H](CCC(=O)O)C(=O)N[C@@H](CC(=O)O)C(=O)N[C@@H](Cc1ccccc1)C(=O)N[C@@H](Cc1ccc(O)cc1)C(=O)N[C@@H](CC(=O)O)C(=O)N[C@@H](C(C)(C)C)C(=O)N[C@H](C(N)=O)CSC4)[C@]1(C)O[C@H]1[C@H](C)[C@@H]1C[C@@](O)(NC(=O)O1)[C@H](OC)/C=C/C=C(\C)C2 (some centres unmarked) [BT1718] ({X1-βAla}-[Sar][Sar][Sar][Sar][Sar][Sar][Sar][Sar][Sar][Sar]AC[dA]NE[1Nal][dA]CEDFYD[Tle]C-NH2; linker 12-18-25 via TBMB (inferred))
AUC [1, 5]: 0.09 µM·h
Cmax [1, 5]: 80 nM
AUC [1, 6]: 0.46 µM·h
Cmax [1, 6]: 590 nM
AUC [1, 7]: 0.85 µM·h
Cmax [1, 7]: 1020 nM
Ki [2]: 1.75 ± 0.92 nM
DLTs (advanced solid tumors; 9.6 mg/m^2 BIW (cohort 5)): 2×DLTs (GGT, fatigue) and increased GGT (grade 4) and fatigue (grade 3)
Drug-related Alanine aminotransferase increased, number of patients, n = 28 (frequency) (advanced solid tumors; human, in vivo): 8 (28.6%)
Drug-related Anaemia, number of patients, n = 28 (frequency) (advanced solid tumors; human, in vivo): 7 (25.0%)
Drug-related Aspartate aminotransferase increased, number of patients, n = 28 (frequency) (advanced solid tumors; human, in vivo): 9 (32.1%)
Drug-related Blood alkaline phosphatase increased, number of patients, n = 28 (frequency) (advanced solid tumors; human, in vivo): 5 (17.9%)
Drug-related Decreased appetite, number of patients, n = 28 (frequency) (advanced solid tumors; human, in vivo): 9 (32.1%)
Drug-related Diarrhea, number of patients, n = 28 (frequency) (advanced solid tumors; human, in vivo): 10 (35.7%)
Drug-related Fatigue, number of patients, n = 28 (frequency) (advanced solid tumors; human, in vivo): 9 (32.1%)
Drug-related Gamma-glutamyltransferase increased, number of patients, n = 28 (frequency) (advanced solid tumors; human, in vivo): 5 (17.9%)
Drug-related Lethargy, number of patients, n = 28 (frequency) (advanced solid tumors; human, in vivo): 6 (21.4%)
Drug-related Nausea, number of patients, n = 28 (frequency) (advanced solid tumors; human, in vivo): 12 (42.9%)
Drug-related Neuropathy peripheral, number of patients, n = 28 (frequency) (advanced solid tumors; human, in vivo): 9 (32.1%)
Drug-related Vomiting, number of patients, n = 28 (frequency) (advanced solid tumors; human, in vivo): 9 (32.1%)
Grade 1-2 related peripheral neuropathy (advanced solid tumors; human, in vivo): occurred more commonly with increasing dose
RP2D for twice weekly dosing (advanced solid tumors; human, in vivo): 7.2 mg/m^2
patients with related grade 1-3 gastrointestinal disorders (advanced solid tumors; including nausea, diarrhea and vomiting): 18/28
tolerability (advanced solid tumors; once weekly dosing, dose levels tested): tolerable
GI-related findings ([3]; GLP rat): No GI-related findings
bladder changes ([3]; GLP rat): No bladder changes
MTD ([3]; GLP rat, highest administered dose 6 mg/m^2 twice weekly): not reached
MTD at 28 day ([3]; in vivo, intravenous, considered from GLP and non-GLP rat studies, read-out: MTD for rat for twice weekly dosing): 1 to 1.5 mg/kg
anti-drug antibodies (ADAs) in serum ([3]; rat 28-day GLP study): negative
hepatic findings ([3]; rat GLP 28 day, 1 mg/kg (6 mg/m^2) twice weekly): minimal to slight reversible hepatocellular atrophy
raised ALP, AST and cholesterol, from control values ([3]; rat GLP 28 day, 1 mg/kg twice weekly): ≤ 1.5 ×
erythrocyte parameters, maximum drop [3, 8]: 0.64 ×
increase in platelets, maximum [3, 8]: 2.3 ×
reduction in reticulocytes ([3]; rat GLP, 1 mg/kg (6 mg/m^2) twice weekly, females): 0.37 ×
reduction in reticulocytes ([3]; rat GLP, 1 mg/kg (6 mg/m^2) twice weekly, males): 0.06 ×
reproductive organ findings ([3]; rat GLP, all males 1 mg/kg (6 mg/m^2) twice weekly): testicular degeneration/atrophy of the seminiferous tubules and the absence of sperm
incidence of minimal hypertrophy of the zona glomerulosa ([3]; rat GLP, females 1 mg/kg (6 mg/m^2) twice weekly): 5 of 10
incidence of minimal hypertrophy of the zona glomerulosa ([3]; rat GLP, males 0.2 mg/kg (1.2 mg/m^2) twice weekly): 2 of 10
incidence of minimal hypertrophy of the zona glomerulosa ([3]; rat GLP, males 0.5 mg/kg (3 mg/m^2) twice weekly): 3 of 10
adrenal gland terminal weights [3, 9]: significantly lower terminal weights
incidence of minimal hypertrophy of the zona glomerulosa [3, 9]: 4 of 10
onset dose of renal tubular epithelial degeneration ([3]; rat GLP, twice weekly): 0.2 mg/kg
axonal degeneration ([3]; rat study): not observed
IC50 (HT-29): 13 nM
GI findings ([4]; mice, single dose of 13.4 mg/kg (40.2 mg/m^2)): intestinal mucosal mitosis
renal findings ([4]; mouse 3.3 mg/kg, 10 mg/m^2 three times weekly): Moderate renal tubule degeneration and epithelial mitosis
IC50 (HCT-15): 870 nM
